From patent publication US20180320179A1, “LANOSTEROL 14-ALPHA DEMETHYLASE (CYP51) NUCLEIC ACID MOLECULES THAT CONTROL PATHOGENS” (Dow AgroSciences LLC, priority 2017, published 2018)

B1: MgCyp51-T2: dsRNA tile of Zymoseptoria tritici Cyp51, 165 bp, location 48-212 (nucleic acid, listed as Zymoseptoria tritici)
chain: CCAGACCAGCCTCTGGAAACTTGTCGGACTTGGATTCCTCGCCTTCAGCACGCTCGCCATCCTCCTCAATGTCCTCTCACAACTTCTCTTCCGTGGCAAGTTGTCCGATCCGCCACTCGTATTCCACTGGGTGCCCTTCATCGGAAGCACCATCACATACGGCAT
B2: MgCyp51-T11: dsRNA tile of Zymoseptoria tritici Cyp51, 172 bp, location 775-946 (nucleic acid, listed as Zymoseptoria tritici)
chain: TCCGAGACATACATGTCGATCATTCAGAAGAGACGAGAGTCCAAAACGGGCGAACATGAGGAAGACATGATCCACAACTTGATGCAGTGCAAATACAAGGACGGCAATGCCATTCCCGACAAGGAGATTGCTCATATGATGATTGCGCTGCTCATGGCCGGCCAGCACTCTT
B3: MgCyp51-T12: dsRNA tile of Zymoseptoria tritici Cyp51, 138 bp, location 1377-1514 (nucleic acid, listed as Zymoseptoria tritici)
chain: TGGCTACGGCCTGGTAAGCAAGGGCGCGGCGTCGCCATACTTACCCTTTGGTGCGGGACGACACAGATGTATCGGCGAGCAATTCGCGTACGTGCAATTGCAGACCATTACAGCGACGATGGTTCGCGATTTCAAGTT
B4: MgCyp51-T7: dsRNA tile of Zymoseptoria tritici Cyp51, 111 bp, location 1490-1600 (nucleic acid, listed as Zymoseptoria tritici)
chain: CGACGATGGTTCGCGATTTCAAGTTTTACAATGTGGATGGCAGCGACAACGTGGTGGGTACGGATTACAGCAGTTTGTTCAGCCGGCCGCTGTCGCCGGCAGTAGTAAAGT
modifications: long dsRNA tile, purified, chemistry not given here
B5: MgCyp51-T9: dsRNA tile of Zymoseptoria tritici Cyp51, 172 bp, location 1-172 (nucleic acid, listed as Zymoseptoria tritici)
chain: ATGGGTCTCCTCCAGGAAGTCCTCGCGCAGTTCGACGCGCAATTCGGCCAGACCAGCCTCTGGAAACTTGTCGGACTTGGATTCCTCGCCTTCAGCACGCTCGCCATCCTCCTCAATGTCCTCTCACAACTTCTCTTCCGTGGCAAGTTGTCCGATCCGCCACTCGTATTCC
modifications: double-stranded RNA

Test system: Zymoseptoria tritici (SEPTTR-184)
Experiment: Cyp51 dsRNA tile (fragment) foliar application bioassay (Example 6)
Assay type: in vivo
Details: for ED50 (ppm) SEPTTR-184 1DP / ED80 (ppm) SEPTTR-184 1DP / Disease Control (%) SEPTTR-184 1DP: 1 day protectant; for ED50 (ppm) SEPTTR-184 1DP / ED80 (ppm) SEPTTR-184 1DP / ED50 (ppm) SEPTTR-184 3DC / ED80 (ppm) SEPTTR-184 3DC: calculated from disease control; for Disease Control (%) SEPTTR-184 1DP / Disease Control (%) SEPTTR-184 3DC: average of 2 trials; for ED50 (ppm) SEPTTR-184 3DC / ED80 (ppm) SEPTTR-184 3DC / Disease Control (%) SEPTTR-184 3DC: 3 days curative
Procedure: The 200 ppm concentration for each treatment was prepared by adding the calculated volume of the corresponding dsRNA solution in TE buffer. […] A non-target dsRNA control (YFP), a TE/phosphate buffer control, disease pressure control, and clean plant control were included.
These plants were inoculated with an aqueous spore suspension of Zymoseptoria tritici either prior to or after fungicidal treatments. After inoculation the plants were kept in 100% relative humidity to allow spores to germinate and infect the leaves. The plants were then transferred to a greenhouse set at 20° C. until disease developed.

Row | Molecule | ED50 (ppm) SEPTTR-184 1DP [ppm] | ED80 (ppm) SEPTTR-184 1DP [ppm] | Disease Control (%) SEPTTR-184 1DP (rate 3.125 ppm) [%] | Disease Control (%) SEPTTR-184 1DP (rate 12.5 ppm) [%] | Disease Control (%) SEPTTR-184 1DP (rate 50 ppm) [%] | Disease Control (%) SEPTTR-184 1DP (rate 200 ppm) [%] | ED50 (ppm) SEPTTR-184 3DC [ppm] | ED80 (ppm) SEPTTR-184 3DC [ppm] | Disease Control (%) SEPTTR-184 3DC (rate 3.125 ppm) [%] | Disease Control (%) SEPTTR-184 3DC (rate 12.5 ppm) [%] | Disease Control (%) SEPTTR-184 3DC (rate 50 ppm) [%] | Disease Control (%) SEPTTR-184 3DC (rate 200 ppm) [%] | curative activity against SEPTTR (ranking) (curative test) | level of control among the fragments (ranking) (fragments compared with each other)
1 | B1 | <3.125 | >200 | 53 | 67 | 70 | 75 | <3.125 | 125 | 76 | 72 | 76 | 84 | provided the best curative activity against SEPTTR | provided the best level of control
2 | B2 | <3.125 | >200 | 63 | 61 | 58 | 61 | 12.500 | >200 | 47 | 50 | 55 | 42 | – | –
3 | B3 | <3.125 | >200 | 59 | 64 | 63 | 64 | 24.219 | >200 | 36 | 45 | 61 | 71 | – | –
4 | B4 | 3.125 | >200 | 50 | 64 | 66 | 70 | 5.331 | >200 | 46 | 63 | 66 | 72 | – | –
5 | B5 | <3.125 | >200 | 53 | 53 | 57 | 76 | <3.125 | >200 | 52 | 46 | 65 | 72 | – | –
